We go through eleven molecules from patent publication US20240400677A1 (ELECTRA THERAPEUTICS, published 2024).

Experiment [1] has as its target T1, cynomolgus monkey SIRPα on CHO cells (cynomolgus monkey, UniProt A0A2K5VYQ9 31-507).
T1 construct: whole, on cells; also called Cyno SIRPα CHO
T1 sequence: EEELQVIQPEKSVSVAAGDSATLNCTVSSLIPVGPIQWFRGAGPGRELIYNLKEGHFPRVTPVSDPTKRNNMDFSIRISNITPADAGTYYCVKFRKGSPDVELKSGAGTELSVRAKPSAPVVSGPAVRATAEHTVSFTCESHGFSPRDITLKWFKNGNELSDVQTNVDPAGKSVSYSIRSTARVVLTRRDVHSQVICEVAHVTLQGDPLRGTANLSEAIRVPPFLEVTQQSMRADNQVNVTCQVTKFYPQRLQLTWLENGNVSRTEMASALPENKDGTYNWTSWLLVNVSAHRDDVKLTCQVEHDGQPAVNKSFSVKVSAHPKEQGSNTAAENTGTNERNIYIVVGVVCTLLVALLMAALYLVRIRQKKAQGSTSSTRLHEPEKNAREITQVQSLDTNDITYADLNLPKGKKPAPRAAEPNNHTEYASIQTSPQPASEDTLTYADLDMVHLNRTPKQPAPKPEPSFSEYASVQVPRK
As to the kind of experiment: flow cytometry, CHO transfectants, anti-human IgG. The procedure:
(§1) Selected antibodies were tested for binding to stably transfected human SIRPγ, SIRPαV1, or SIRPβ1 (co-transfected with DAP12) Chinese hamster ovary (CHO) cells via flow cytometry. A titration of select antibodies was added to the cells and detected using a fluorescently labelled secondary anti-rat IgG antibody or anti-human IgG antibody. Graphs depict the median fluorescence intensity (MFI) at each concentration. FIGS. 5A and 5G show the binding curves of select antibodies to human SIRPγ, cynomolgus monkey SIRPγ, human SIRPα, cynomolgus monkey SIRPα, human SIRPβ1, or cynomolgus monkey SIRPβl-expressing CHO cells detected using an anti-rat IgG antibody. FIGS. 5B-5F and 5H-5L show the binding curves of select antibodies to human SIRPγ, cynomolgus monkey SIRPγ, human SIRPα, cynomolgus monkey SIRPα, human SIRPβ1, or cynomolgus monkey SIRPβ1-expressing CHO cells detected using an anti-human IgG antibody. […] For select antibodies, each myc-tagged SIRPγ scFv antibody as crude PPE was incubated with each of the SIRP-expressing cell lines stated above along with the parental CHO-K1 cell line. […] Fold change value <2.0 is considered a non-binder.
(A flow cytometer gives signals particle by particle.)

The target of experiment [2] is T2, human SIRPβ1 on CHO cells (co-transfected with DAP12) (human, UniProt O00241 30-398).
T2 construct: whole, on cells; co-transfected with DAP12; also called Human SIRPβ1 CHO
T2 sequence (O00241 30-398): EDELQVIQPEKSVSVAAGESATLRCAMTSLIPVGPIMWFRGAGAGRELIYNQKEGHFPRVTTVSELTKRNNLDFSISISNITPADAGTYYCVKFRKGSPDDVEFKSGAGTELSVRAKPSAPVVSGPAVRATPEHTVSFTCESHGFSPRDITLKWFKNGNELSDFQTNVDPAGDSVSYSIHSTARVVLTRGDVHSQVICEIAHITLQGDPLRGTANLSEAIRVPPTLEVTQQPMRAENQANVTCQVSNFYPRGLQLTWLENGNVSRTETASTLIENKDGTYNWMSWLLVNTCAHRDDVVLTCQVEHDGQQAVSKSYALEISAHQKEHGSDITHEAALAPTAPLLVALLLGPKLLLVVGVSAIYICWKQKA
As to the kind of experiment: flow cytometry, CHO transfectants, anti-human IgG. The procedure:
as §1

Experiment [3] concerns the target T3, Cynomolgus Monkey SIRPγ (plate-coated extracellular domain).
T3 construct: also called Cyno SIRPγ
T3 extracellular domain: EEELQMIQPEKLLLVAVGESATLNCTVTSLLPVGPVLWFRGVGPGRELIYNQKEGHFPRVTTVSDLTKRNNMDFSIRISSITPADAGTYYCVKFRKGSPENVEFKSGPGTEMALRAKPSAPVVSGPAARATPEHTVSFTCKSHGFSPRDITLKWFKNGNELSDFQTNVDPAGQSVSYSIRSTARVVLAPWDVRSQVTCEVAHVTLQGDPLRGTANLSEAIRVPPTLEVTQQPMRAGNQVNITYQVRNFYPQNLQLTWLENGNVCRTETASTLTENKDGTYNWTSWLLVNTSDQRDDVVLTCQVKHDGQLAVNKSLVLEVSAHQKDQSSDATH
As to the kind of experiment: ELISA, coated SIRP ECD (2 µg/mL), anti-human IgG, luminescence. The procedure:
(§2) Selected hybridoma supernatants of Example 1 were tested for binding to human SIRPγ, cynomolgus monkey SIRPγ, human SIRPα V1, cynomolgus monkey SIRPα, human SIRPβ1, and cynomolgus monkey SIRPβ1 by enzyme-linked immunosorbent assay (ELISA). Briefly, 2 μg/mL of the extracellular domain of SIRP protein was coated onto high protein-binding plates and blocked. Undiluted supernatants were added to coated plates. The antibodies were detected by an anti-rat antibody and a chemiluminescent substrate. […] The data depict the relative luminescence units read by a plate-reader capable of detecting chemiluminescence.
(§3) FIGS. 2A-2G show binding curves of SIRPγ antibodies and human Fc isotype controls to human SIRPγ, cynomolgus monkey SIRPγ, human SIRPα V1, human SIRPα V2, and human SIRPβ1 by ELISA. […] Isotype control 2 was an unrelated human IgG1 antibody with irrelevant CDRs with no modifications in the Fc region. DNA was transiently transfected into Expi293F cells for 5 days. Antibodies were purified by Protein A from cell supernatants and analyzed in a titration via ELISA as previously described in FIG. 1 using an anti-human IgG antibody as the detection antibody.
(In an ELISA, binding on a coated surface is turned into a signal by an enzyme label.)

The target of experiment [4] is T4, extracellular binding domain of human SIRPγ (plate-coated) (human, UniProt Q9P1W8 29-360).
T4 construct: also called hSIRPγ
T4 sequence (Q9P1W8 29-360 limits assumed): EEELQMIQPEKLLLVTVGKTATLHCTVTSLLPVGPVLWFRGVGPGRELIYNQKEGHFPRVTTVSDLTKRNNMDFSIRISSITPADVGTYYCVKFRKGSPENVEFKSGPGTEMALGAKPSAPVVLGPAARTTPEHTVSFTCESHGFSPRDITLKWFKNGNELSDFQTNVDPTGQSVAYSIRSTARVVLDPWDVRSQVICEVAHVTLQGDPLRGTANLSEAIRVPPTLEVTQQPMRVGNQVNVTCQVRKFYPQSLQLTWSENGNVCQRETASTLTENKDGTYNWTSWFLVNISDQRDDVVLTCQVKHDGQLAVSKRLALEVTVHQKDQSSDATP
The description is as above. The procedure:
as §2, §3

B1: Antibody 66 (antibody, V domains shown)
VH: QVQLVQSGAEVKKPGASVKVSCKASGGTFSSYAISWVRQAPGQGLEWMGIINPSSSSTGYAQKFQGRVTMTRDTSTSTVYMELSSLRSEDTAVYYCARAGYYDSSGYYYSPYYGMDVWGQGTTVTVSS
VL: EIVMTQSPATLSVSPGERATLSCRASQSISGSYLAWYQQKPGQAPRLLIYGASTRATGIPARFSGSGSGTEFTLTISSLQSEDFAVYYCQQYGSFPFTFGPGTKVDIK
In the case of B1, the binding result in experiment [1] and in experiment [2] was “no binding (tested: about 20 µg/mL)” throughout. In addition, the concentration giving a half-maximal response (EC50 (read off the curve)) (in general, the concentration needed to bring the measured effect to its halfway point) in experiment [3] was roughly 0.1 µg/mL.

B2: Antibody 78 (antibody, V domains shown)
VH: QVQLVQSGAEVKKPGASVKVSCKASGYTFTTYGISWVRQAPGQGLEWMGWMDPNSGSTGYAQKFQGRVTMTRDTSTSTVYMELSSLRSEDTAVYYCARGRGNSYYYYYMDVWGKGTTVTVSS
VL: DIQMTQSPSSLSASVGDRVTITCRASQRIGSYLNWYQQKPGKAPKLLIYGASNLQSGVPSRFSGSGSGTDFTLTISSLQPEDFATYYCQQANSFPFTFGPGTKVDIK
On to B2, for which the binding result in experiment [1] is given as “no binding (tested: about 20 µg/mL)”; in experiment [2], “no binding (tested: about 20 µg/mL)”; in experiment [3] it was “binds”.

B3: Antibody 77 (antibody, V domains shown)
VH: QVQLVQSGAEVKKPGASVKVSCKASGYTFTSYGISWVRQAPGQGLEWMGWISAYNGNTNYAQKFQGRVTMTRDTSTSTVYMELSSLRSEDTAVYYCARGTYYDYIWGSYRYSWFDYWGQGTLVTVSS
VL: not shown
Consider B3, for which the binding result in experiment [1] and in experiment [2] was “no binding (tested: about 20 µg/mL)” in each case. The figures for the “EC50 (read off the curve)” value in experiment [3] and in experiment [4] were roughly 0.04 µg/mL and roughly 0.02 µg/mL, respectively.

B4: Antibody 74 (antibody, V domains shown)
VH: QVQLVQSGAEVKKPGASVKVSCKASGGTFSNYGFSWVRQAPGQGLEWMGWMSPSSGNTGYAQKFQGRVTMTRDTSTSTVYMELSSLRSEDTAVYYCARERSGSYFDYWGQGTLVTVSS
VL: EIVMTQSPATLSVSPGERATLSCRASQSVSSYLAWYQQKPGQAPRLLIYGTSTRATGIPARFSGSGSGTEFTLTISSLQSEDFAVYYCQQYGSLPFTFGQGTRLEIK
As to B4, the binding result in experiment [1] and in experiment [2] was “no binding (tested: about 20 µg/mL)” each time. Moreover, the “EC50 (read off the curve)” value in experiment [3] is roughly 0.7 µg/mL; in experiment [4] it was roughly 0.4 µg/mL.

B5: Antibody 76 (antibody, V domains shown)
VH: QVQLVQSGAEVKKPGSSVKVSCKASGGTFSKIAVSWVRQAPGQGLEWMGLINPNSGGTDYAQKFQGRVTITADESTSTAYMELSSLRSEDTAVYYCAKDFRGGDYYYYGMDVWGQGTTVTVSS
VL: EIVMTQSPATLSVSPGERATLSCRASQSVSSNLAWYQQKPGQAPRLLIYGASTRATGIPARFSGSGSGTEFTLTISSLQSEDFAVYYCQQYNTYPITFGQGTKVEIK
As for B5, the binding result in experiment [1] and in experiment [2] was “no binding (tested: about 20 µg/mL)” in each case. The “EC50 (read off the curve)” value in experiment [3] is roughly 0.1 µg/mL; in experiment [4], roughly 0.09 µg/mL.

B6: Antibody 62 (antibody, V domains shown)
VH: QVQLVQSGAEVKKPGASVKVSCKASGGTFSNYDINWVRQAPGQGLEWMGWISAYNGNTNYAQKLQGRVTMTRDTSTSTVYMELSSLRSEDTAVYYCAAEAYGDYSLDPWGQGTLVTVSS
VL: DIQMTQSPSSLSASVGDRVTITCQASQGISSYLNWYQQKPGKAPKLLIYAASSLQNGVPSRFSGSGSGTDFTLTISSLQPEDFATYYCQQSYSTPITFGQGTRLEIK
Regarding B6, the binding result is on record as “no binding (tested: about 20 µg/mL)” in experiment [1], “no binding (tested: about 20 µg/mL)” in experiment [2] and “binds” in experiment [3].

B7: Antibody 67 (antibody, V domains shown)
VH: QVQLVQSGAEVKKPGASVKVSCKASGYTFTNFDINWVRQAPGQGLEWMGWISAYNGHTNYAQNLQGRVTMTRDTSTSTVYMELSSLRSEDTAVYYCAQEAAAGYFDYWGQGTLVTVSS
VL: DIQMTQSPSSLSASVGDRVTITCRASQDIRNDLAWYQQKPGKAPKLLIYDASNLETGVPSRFSGSGSGTDFTLTISSLQPEDFATYYCQQSYGTPYTFGQGTKLEIK
Consider B7, for which the values for the binding result in experiment [1], in experiment [2] and in experiment [3] were “no binding (tested: about 20 µg/mL)”, “no binding (tested: about 20 µg/mL)” and “binds”, respectively.

B8: Antibody 61 (antibody, V domains shown)
VH: QVQLVQSGAEVKKPGASVKVSCKASGYTFTSHDINWVRQAPGQGLEWMGISNPSGGSTYYAQKFQGRVTMTRDTSTSTVYMELSSLRSEDTAVYYCASSRRYWNGAFDYWGQGTLVTVSS
VL: not shown
Regarding B8, the binding result in experiment [3] was “binds”.

B9: Antibody 55 (antibody, V domains shown)
VH: EVQLLESGGGLVQPGGSLRLSCAASGFTFSNSDMNWVRQAPGKGLEWVSYISSSGNTIYYADSVKGRFTISRDNSKNTLYLQMNSLRAEDTAVYYCARSNWNYPLDYYYMDVWGKGTTVTVSS
VL: DIVMTQSPLSLPVTPGEPASISCRSSQSLLHSNGYNYLDWYLQKPGQSPQLLIYAASSLQSGVPDRFSGSGSGTDFTLKISRVEAEDVGVYYCMQGTHWPPTFGQGTKVEIK
For the molecule B9, the binding result in experiment [1] and in experiment [2] was “no binding (tested: about 20 µg/mL)” in each case. Further, the “EC50 (read off the curve)” value in experiment [4] was roughly 0.7 µg/mL.

B10: Antibody 56 (antibody, V domains shown)
VH: QVQLVQSGAEVKKPGASVKVSCKASGYTFTSYYMHWVRQAPGQGLEWMGWVDPNNGDTGYAQKFQGRVTMTRDTSTSTVYMELSSLRSEDTAVYYCARDNWGSLDVWGKGTTVTVSS
VL: DIVMTQSPLSLPVTPGEPASISCRSSQSLLHSNGYNYLDWYLQKPGQSPQLLIYAASTLQSGVPDRFSGSGSGTDFTLKISRVEAEDVGVYYCMQGLQTLYSFGQGTKLEIK
As to B10, the binding result in experiment [2] is recorded as “no binding (tested: about 20 µg/mL)”. For the same molecule, the “EC50 (read off the curve)” value in experiment [3] was roughly 0.4 µg/mL; in experiment [4] it was roughly 0.7 µg/mL.

B11: Antibody 75 (antibody, V domains shown)
VH: QVQLVQSGAEVKKPGSSVKVSCKASGGTFSNYAISWVRQAPGQGLEWMGGIIPIFGSTASYAQKFQGRVTITADESTSTAYMELSSLRSEDTAVYYCARGVGDDTLTDWGQGTLVTVSS
VL: DIVMTQSPLSLPVTPGEPASISCRSSQSLLHSNGYNYLDWYLQKPGQSPQLLIYAASSLQSGVPDRFSGSGSGTDFTLKISRVEAEDVGVYYCMQALQTPLTFGGGTKVEIK
Take B11: the binding result in experiment [1] and in experiment [2] was “no binding (tested: about 20 µg/mL)” throughout.
